Measurements published in PMC9719863 (Molecular Metabolism, 2022).
*1 amine or outer side, *2 acyl side, *3 side chain or, on linkers, in order; H or OH if unused. Where no end group is shown, it is not given here. Side-chain parts run from the residue outwards. The star is where a group is joined. C18 diacid = O=C(O)CCCCCCCCCCCCCCCCC(=O)*; γGlu = O=C(O)[C@H](CCC(=O)[*:2])N[*:1]; Palmitoyl = CCCCCCCCCCCCCCCC(=O)*; AEEA = NCCOCCOCC(=O)O

Assays:
[1] = target: T1, mGIPR (Mus musculus, UniProt Q0P543); test: cAMP CRE-luciferase assay in BHK cells expressing GIPR; format: cell-based; conditions: agonist mode, without native ligand
T1 sequence (Q0P543 19-460): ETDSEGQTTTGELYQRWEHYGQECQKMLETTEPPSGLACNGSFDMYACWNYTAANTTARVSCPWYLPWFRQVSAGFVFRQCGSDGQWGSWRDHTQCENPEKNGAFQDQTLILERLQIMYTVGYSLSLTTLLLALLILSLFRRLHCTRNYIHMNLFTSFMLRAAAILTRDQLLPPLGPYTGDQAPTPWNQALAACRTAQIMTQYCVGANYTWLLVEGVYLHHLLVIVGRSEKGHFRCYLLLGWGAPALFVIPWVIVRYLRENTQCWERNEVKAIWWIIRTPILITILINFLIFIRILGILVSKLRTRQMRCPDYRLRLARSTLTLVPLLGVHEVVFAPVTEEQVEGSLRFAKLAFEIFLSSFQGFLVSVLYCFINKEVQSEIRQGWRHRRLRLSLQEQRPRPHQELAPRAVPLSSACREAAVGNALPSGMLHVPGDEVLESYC

[2] = target: T2, hGIPR (Homo sapiens, UniProt P48546); test: as above; format: cell-based; conditions: agonist mode; for Agonism at the hGIPR (cAMP production by peptide alone): without native ligand
T2 sequence (P48546 22-466): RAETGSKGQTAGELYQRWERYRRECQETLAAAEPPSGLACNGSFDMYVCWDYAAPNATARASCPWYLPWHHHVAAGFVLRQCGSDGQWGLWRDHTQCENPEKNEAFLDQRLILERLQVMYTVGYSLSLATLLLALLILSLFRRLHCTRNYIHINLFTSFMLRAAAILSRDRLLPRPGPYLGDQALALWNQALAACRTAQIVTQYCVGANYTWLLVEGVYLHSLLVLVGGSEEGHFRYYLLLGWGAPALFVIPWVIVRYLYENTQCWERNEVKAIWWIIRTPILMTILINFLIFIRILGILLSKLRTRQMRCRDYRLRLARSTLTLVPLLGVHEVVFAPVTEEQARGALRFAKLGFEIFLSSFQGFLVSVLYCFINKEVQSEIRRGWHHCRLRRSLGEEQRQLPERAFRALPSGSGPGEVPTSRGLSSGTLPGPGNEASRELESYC

[3] = target: T3, mouse GIP receptor (mouse) (UniProt Q0P543)
T3 sequence: T1 sequence (Q0P543 19-460)

[4] = target: T4, human GIP receptor (human) (UniProt P48546)
T4 sequence: T2 sequence (P48546 22-466)

[5] = target: T5, human GIP receptor (human, UniProt P48546 22-466); test: cell-based or functional assay
T5 sequence: T2 sequence (P48546 22-466)

[6] = target: T6, mouse GIP receptor (mouse, UniProt Q0P543 19-460); test: cell-based or functional assay
T6 sequence: T1 sequence (Q0P543 19-460)

[7] = target: T5, human GIP receptor; test: radioligand binding
[8] = target: T6, mouse GIP receptor; test: radioligand binding

Molecule: CCCCCCCCCCCCCCCC(=O)N[C@@H](CCC(=O)NCCCC[C@H](NC(=O)[C@H](Cc1ccc(O)cc1)NC(=O)[C@H](CC(=O)O)NC(=O)[C@H](CO)NC(=O)[C@@H](NC(=O)[C@H](Cc1ccccc1)NC(=O)[C@@H](NC(=O)CNC(=O)[C@@H](N)CCC(=O)O)[C@@H](C)O)[C@@H](C)CC)C(=O)N[C@H](C(=O)N[C@@H](C)C(=O)N[C@@H](CC(C)C)C(=O)N[C@@H](CC(=O)O)C(=O)N[C@@H](CCCCN)C(=O)N[C@H](C(=O)N[C@@H](CCCNC(=N)N)C(=O)N[C@@H](CCC(N)=O)C(=O)N[C@@H](CCC(N)=O)C(=O)N[C@@H](CCC(=O)O)C(=O)N[C@@H](Cc1ccccc1)C(=O)N[C@H](C(=O)N[C@@H](CC(N)=O)C(=O)N[C@@H](Cc1c[nH]c2ccccc12)C(=O)N[C@@H](CC(C)C)C(=O)N[C@@H](CC(C)C)C(=O)N[C@@H](C)C(=O)N[C@@H](CCC(N)=O)C(=O)N[C@@H](CCCCN)C(N)=O)C(C)C)[C@@H](C)CC)[C@@H](C)CC)C(=O)O [Peptide 6, [L14, R18, E21] hGIP(3–30)-K11 (γE-C16)]
- Agonism at the mGIPR (cAMP production by peptide alone) [1]: negligible cAMP production as agonists
- Agonism at the hGIPR (cAMP production by peptide alone) [2]: negligible cAMP production as agonists

Molecule: CC[C@H](C)[C@H](NC(=O)[C@H](CO)NC(=O)[C@H](Cc1ccc(O)cc1)NC(=O)[C@H](CC(=O)O)NC(=O)[C@H](CO)NC(=O)[C@@H](NC(=O)[C@H](Cc1ccccc1)NC(=O)[C@@H](NC(=O)CNC(=O)[C@H](CCC(=O)O)NC(=O)[C@H](C)NC(=O)[C@@H](N)Cc1ccc(O)cc1)[C@@H](C)O)[C@@H](C)CC)C(=O)N[C@@H](C)C(=O)N[C@@H](CCSC)C(=O)N[C@@H](CC(=O)O)C(=O)N[C@@H](CCCCN)C(=O)N[C@H](C(=O)N[C@@H](CCCNC(=N)N)C(=O)N[C@@H](CCC(N)=O)C(=O)N[C@@H](CCC(N)=O)C(=O)N[C@@H](CC(=O)O)C(=O)N[C@@H](Cc1ccccc1)C(=O)N[C@H](C(=O)N[C@@H](CC(N)=O)C(=O)N[C@@H](Cc1c[nH]c2ccccc12)C(=O)N[C@@H](CC(C)C)C(=O)N[C@@H](CC(C)C)C(=O)N[C@@H](C)C(=O)N[C@@H](CCC(N)=O)C(=O)N[C@@H](CCCNC(=N)N)C(=O)NCC(=O)N[C@@H](CCCCN)C(=O)N[C@@H](CCCCN)C(=O)N[C@@H](CO)C(=O)N[C@@H](CC(=O)O)C(=O)N[C@@H](Cc1c[nH]c2ccccc12)C(=O)N[C@@H](CCCCN)C(=O)N[C@@H](Cc1c[nH]cn1)C(=O)N[C@@H](CC(N)=O)C(=O)N[C@H](C(=O)N[C@H](C(=O)N[C@@H](CCC(N)=O)C(=O)O)[C@@H](C)O)[C@@H](C)CC)C(C)C)[C@@H](C)CC [mGIP, reference compound]
- EC50 ([2]; cAMP EC50, hGIPR, native ligand, Table 1): 0.01 nM

Molecule: EGTFISDYSIALDKIRQQEFVNWLLAQK-NH2 [Peptide 2, [L14, R18, E21] hGIP(3–30)]
- Agonism at the mGIPR (cAMP production by peptide alone) [1]: no significant agonism
- Agonism at the hGIPR (cAMP production by peptide alone) [2]: partial agonism

Molecule: FISDYSIALDKIRQQEFVNWLLAQKG [Peptide 4, [L14, R18, E21] hGIP(6–31)]
- Agonism at the mGIPR (cAMP production by peptide alone) [1]: no significant agonism
- Agonism at the hGIPR (cAMP production by peptide alone) [2]: partial agonism

Molecule: TFISDYSIALDKIRQQEFVNWLLAQKG [Peptide 3, [L14, R18, E21] hGIP(5–31)]
- Agonism at the mGIPR (cAMP production by peptide alone) [1]: no significant agonism
- Agonism at the hGIPR (cAMP production by peptide alone) [2]: partial agonism

Molecule: [Pla6, L14, R18, E21] hGIP(6-31) (peptide)
- maximal % inhibition of GIP-induced cAMP in BHK cells expressing mGIPR [3]: 99%
- maximal % inhibition of GIP-induced cAMP in BHK cells expressing hGIPR [4]: 98%

Molecule: [Pla6, L14, R18, E21] hGIP(6-31)-K11 (γE-C16) (peptide)
- maximal % inhibition of GIP-induced cAMP in BHK cells expressing mGIPR [3]: 99%
- maximal % inhibition of GIP-induced cAMP in BHK cells expressing hGIPR [4]: 100%

Molecule: mouse GIP (from UniProt P48756 44-85) (ligand)
- EC50 of cAMP production (CRE-luciferase) in BHK cells expressing hGIPR [4]: 0.01 nM

B1: [Nα-Ac, L14, R18, E21] hGIP(5-31)-K11 (γE-C16) (peptide)
peptide: Ac-TFISDYK([γGlu-Palmitoyl])IALDKIRQQEFVNWLLAQKG
- maximal % inhibition of GIP-induced cAMP in BHK cells expressing hGIPR [5]: 100%
- maximal % inhibition of GIP-induced cAMP in BHK cells expressing mGIPR [6]: 100%

B2: [L14, R18, E21] hGIP(5-31) (peptide)
peptide: TFISDYSIALDKIRQQEFVNWLLAQKG
- maximal % inhibition of GIP-induced cAMP in BHK cells expressing hGIPR [5]: 81%
- maximal % inhibition of GIP-induced cAMP in BHK cells expressing mGIPR [6]: 93%
- IC50 [7]: 1.8 nM
- IC50 [8]: 18.7 nM

B3: [Nα-Ac, L14, R18, E21] hGIP(5-31)-K10 (γE-C16) (peptide)
peptide: Ac-TFISDK([γGlu-Palmitoyl])SIALDKIRQQEFVNWLLAQKG
- maximal % inhibition of GIP-induced cAMP in BHK cells expressing hGIPR [5]: 100%
- maximal % inhibition of GIP-induced cAMP in BHK cells expressing mGIPR [6]: 100%
- IC50 [7]: 0.21 nM
- IC50 [8]: 1 nM

B4: [L14, R18, E21] hGIP(3-30)-K11 (γE-C16) (peptide)
peptide: EGTFISDYK([γGlu-Palmitoyl])IALDKIRQQEFVNWLLAQK-NH2
modifications: N-terminus assumed
SMILES: CCCCCCCCCCCCCCCC(=O)N[C@@H](CCC(=O)NCCCC[C@H](NC(=O)[C@H](Cc1ccc(O)cc1)NC(=O)[C@H](CC(=O)O)NC(=O)[C@H](CO)NC(=O)[C@@H](NC(=O)[C@H](Cc1ccccc1)NC(=O)[C@@H](NC(=O)CNC(=O)[C@@H](N)CCC(=O)O)[C@@H](C)O)[C@@H](C)CC)C(=O)N[C@H](C(=O)N[C@@H](C)C(=O)N[C@@H](CC(C)C)C(=O)N[C@@H](CC(=O)O)C(=O)N[C@@H](CCCCN)C(=O)N[C@H](C(=O)N[C@@H](CCCNC(=N)N)C(=O)N[C@@H](CCC(N)=O)C(=O)N[C@@H](CCC(N)=O)C(=O)N[C@@H](CCC(=O)O)C(=O)N[C@@H](Cc1ccccc1)C(=O)N[C@H](C(=O)N[C@@H](CC(N)=O)C(=O)N[C@@H](Cc1c[nH]c2ccccc12)C(=O)N[C@@H](CC(C)C)C(=O)N[C@@H](CC(C)C)C(=O)N[C@@H](C)C(=O)N[C@@H](CCC(N)=O)C(=O)N[C@@H](CCCCN)C(N)=O)C(C)C)[C@@H](C)CC)[C@@H](C)CC)C(=O)O
- maximal % inhibition of GIP-induced cAMP in BHK cells expressing hGIPR [5]: 100%
- maximal % inhibition of GIP-induced cAMP in BHK cells expressing mGIPR [6]: 97%
- IC50 [7]: 0.36 nM
- IC50 [8]: 2.1 nM

B5: [L14, R18, E21] hGIP(3-30) amide (peptide)
peptide: EGTFISDYSIALDKIRQQEFVNWLLAQK-NH2
- maximal % inhibition of GIP-induced cAMP in BHK cells expressing mGIPR [3]: 86%
- maximal % inhibition of GIP-induced cAMP in BHK cells expressing hGIPR [4]: 72%

B6: [Nα-Ac, L14, R18, E21] hGIP(5-31)-K11(OEG2-γE-C18-OH) (peptide)
peptide: Ac-TFISDYK([AEEA-AEEA-γGlu-C18 diacid])IALDKIRQQEFVNWLLAQKG
- maximal % inhibition of GIP-induced cAMP in BHK cells expressing hGIPR [5]: 100%
- maximal % inhibition of GIP-induced cAMP in BHK cells expressing mGIPR [6]: 100%
- IC50 [7]: 3.83 nM
- IC50 [8]: 24.8 nM

B7: [L14, R18, E21] hGIP(6-31) (peptide)
peptide: FISDYSIALDKIRQQEFVNWLLAQKG
- maximal % inhibition of GIP-induced cAMP in BHK cells expressing hGIPR [5]: 83%
- maximal % inhibition of GIP-induced cAMP in BHK cells expressing mGIPR [6]: 91%
- IC50 [7]: 6.45 nM
- IC50 [8]: 37.1 nM

B8: hGIP(3-30) amide (peptide)
peptide: EGTFISDYSIAMDKIHQQDFVNWLLAQK-NH2
- maximal % inhibition of GIP-induced cAMP in BHK cells expressing hGIPR [5]: 81%
- maximal % inhibition of GIP-induced cAMP in BHK cells expressing mGIPR [6]: 73%
- IC50 [7]: 1.55 nM

B9: [Nα-Ac, L14, R18, E21] hGIP(5-31)-K11(OEG2-C18-OH) (peptide)
peptide: Ac-TFISDYK([AEEA-AEEA-C18 diacid])IALDKIRQQEFVNWLLAQKG
- maximal % inhibition of GIP-induced cAMP in BHK cells expressing hGIPR [5]: 100%
- maximal % inhibition of GIP-induced cAMP in BHK cells expressing mGIPR [6]: 100%
- IC50 [7]: 2.49 nM
- IC50 [8]: 8.7 nM

B10: [Nα-Ac, L14, R18, E21] hGIP(5-31)-K11 (-C18-OH) (peptide)
peptide: Ac-TFISDYK(C18 diacid)IALDKIRQQEFVNWLLAQKG
- maximal % inhibition of GIP-induced cAMP in BHK cells expressing hGIPR [5]: 100%
- maximal % inhibition of GIP-induced cAMP in BHK cells expressing mGIPR [6]: 100%
- IC50 [7]: 0.9 nM
- IC50 [8]: 5.4 nM
